IntAct's records for PubMed 25502805

Each substance was assayed against hbaz_human HBZ (UniProt P02008).

Row | Substance | effect of a mutation on the interaction
1 | Hemoglobin subunit beta (Homo sapiens), P68871 D100Y | disrupting interaction strength
2 | Hemoglobin subunit beta (Homo sapiens), P68871 E102Q | disrupting interaction strength
3 | Hemoglobin subunit beta (Homo sapiens), P68871 E122V | disrupting interaction strength
4 | Hemoglobin subunit beta (Homo sapiens), P68871 F104L | disrupting interaction strength
5 | Hemoglobin subunit beta (Homo sapiens), P68871 F123S | disrupting interaction strength
6 | Hemoglobin subunit beta (Homo sapiens), P68871 H118Y | disrupting interaction strength
7 | Hemoglobin subunit beta (Homo sapiens), P68871 L115P | disrupting interaction strength
8 | Hemoglobin subunit beta (Homo sapiens), P68871 N103Y | with no effect
9 | Hemoglobin subunit beta (Homo sapiens), P68871 P101A | disrupting interaction strength
10 | Hemoglobin subunit beta (Homo sapiens), P68871 S10C | disrupting interaction strength
11 | Hemoglobin subunit beta (Homo sapiens), P68871 V114E | disrupting interaction strength
12 | Hemoglobin subunit beta (Homo sapiens), P68871 V127G | disrupting interaction strength

These substances were tested against vps29_human VPS29 (UniProt Q9UBQ0).

Row | Substance | effect of a mutation on the interaction
13 | Vacuolar protein sorting-associated protein 35 (Homo sapiens) (from UniProt Q96QK1) D620N | with no effect
14 | Vacuolar protein sorting-associated protein 35 (Homo sapiens) (from UniProt Q96QK1) R524W | with no effect
